According to IntAct's records for PubMed 22404908:

B1: Rho-related GTP-binding protein RhoD (Homo sapiens), O00212 (parent)
chain: MTAAQAAGEEAPPGVRSVKVVLVGDGGCGKTSLLMVFADGAFPESYTPTVFERYMVNLQVKGKPVHLHIWDTAGQDDYDRLRPLFYPDASVLLLCFDVTSPNSFDNIFNRWYPEVNHFCKKVPIIVVGCKTDLRKDKSLVNKLRRNGLEPVTYHRGQEMARSVGAVAYLECSARLHDNVHAVFQEAAEVALSSRGRNFWRRITQGFCVVT

Variants of: B1
Settings: with plxb1_human PLXNB1, O43157
Chain of plxb1_human PLXNB1, O43157 (O43157 whole entry): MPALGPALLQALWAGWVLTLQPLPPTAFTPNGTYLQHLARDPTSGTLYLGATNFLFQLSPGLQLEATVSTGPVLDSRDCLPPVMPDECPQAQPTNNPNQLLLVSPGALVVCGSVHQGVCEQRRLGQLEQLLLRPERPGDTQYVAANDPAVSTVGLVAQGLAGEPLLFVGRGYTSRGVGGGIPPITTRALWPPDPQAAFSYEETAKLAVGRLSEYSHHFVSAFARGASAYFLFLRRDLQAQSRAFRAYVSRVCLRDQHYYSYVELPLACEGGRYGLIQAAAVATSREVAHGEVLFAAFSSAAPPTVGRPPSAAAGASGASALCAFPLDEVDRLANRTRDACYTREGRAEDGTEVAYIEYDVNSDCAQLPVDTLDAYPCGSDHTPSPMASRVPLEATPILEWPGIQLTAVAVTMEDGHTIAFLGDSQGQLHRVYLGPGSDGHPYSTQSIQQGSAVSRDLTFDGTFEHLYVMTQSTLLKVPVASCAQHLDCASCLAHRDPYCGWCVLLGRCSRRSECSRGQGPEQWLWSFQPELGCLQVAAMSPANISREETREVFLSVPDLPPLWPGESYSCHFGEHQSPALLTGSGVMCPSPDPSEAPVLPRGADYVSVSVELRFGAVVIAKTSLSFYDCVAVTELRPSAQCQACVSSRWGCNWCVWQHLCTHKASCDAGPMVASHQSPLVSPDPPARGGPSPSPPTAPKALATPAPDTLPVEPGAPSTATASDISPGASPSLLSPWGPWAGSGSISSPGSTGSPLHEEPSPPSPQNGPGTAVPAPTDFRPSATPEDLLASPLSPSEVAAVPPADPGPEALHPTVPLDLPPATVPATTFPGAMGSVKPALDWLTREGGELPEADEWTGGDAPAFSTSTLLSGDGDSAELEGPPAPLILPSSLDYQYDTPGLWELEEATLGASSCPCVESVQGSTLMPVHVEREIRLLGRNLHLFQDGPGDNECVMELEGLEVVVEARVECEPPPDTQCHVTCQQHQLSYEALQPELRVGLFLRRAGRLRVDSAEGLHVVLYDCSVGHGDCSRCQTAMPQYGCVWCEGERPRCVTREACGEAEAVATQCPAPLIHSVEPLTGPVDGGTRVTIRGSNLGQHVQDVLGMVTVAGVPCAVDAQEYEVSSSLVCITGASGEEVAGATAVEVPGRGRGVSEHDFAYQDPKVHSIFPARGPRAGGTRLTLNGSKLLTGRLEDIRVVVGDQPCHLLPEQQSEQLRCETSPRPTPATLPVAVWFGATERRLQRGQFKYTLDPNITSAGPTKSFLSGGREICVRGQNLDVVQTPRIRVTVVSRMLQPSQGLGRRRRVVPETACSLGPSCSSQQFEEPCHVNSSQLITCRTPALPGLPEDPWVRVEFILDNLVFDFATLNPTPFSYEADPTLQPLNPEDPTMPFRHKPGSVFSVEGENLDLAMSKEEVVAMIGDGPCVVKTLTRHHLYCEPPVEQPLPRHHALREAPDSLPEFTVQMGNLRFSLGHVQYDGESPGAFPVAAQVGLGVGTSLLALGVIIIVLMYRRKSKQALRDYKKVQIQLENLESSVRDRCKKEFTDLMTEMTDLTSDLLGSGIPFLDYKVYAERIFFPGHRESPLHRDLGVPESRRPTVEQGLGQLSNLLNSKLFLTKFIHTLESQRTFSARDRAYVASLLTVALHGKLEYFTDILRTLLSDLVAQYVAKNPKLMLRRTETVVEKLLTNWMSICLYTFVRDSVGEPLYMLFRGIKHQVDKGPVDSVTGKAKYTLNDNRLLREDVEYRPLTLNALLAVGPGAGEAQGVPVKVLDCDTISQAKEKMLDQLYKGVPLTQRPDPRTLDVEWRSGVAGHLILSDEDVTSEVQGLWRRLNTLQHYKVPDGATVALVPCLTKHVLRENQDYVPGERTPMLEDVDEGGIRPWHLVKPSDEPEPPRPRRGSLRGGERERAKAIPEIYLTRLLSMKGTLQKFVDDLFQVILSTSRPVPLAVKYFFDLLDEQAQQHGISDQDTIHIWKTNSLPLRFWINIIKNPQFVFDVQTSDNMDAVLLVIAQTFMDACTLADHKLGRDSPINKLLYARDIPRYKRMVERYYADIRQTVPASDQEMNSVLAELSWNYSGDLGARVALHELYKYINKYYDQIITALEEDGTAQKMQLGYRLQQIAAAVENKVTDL
For MTAAQAAGEEAPPGVRSVKVVLVGDGGCGKKSLLMVFADGAFPESYTPTVFERYMVNLQVKGKPVHLHIWDTAGQDDYDRLRPLFYPDASVLLLCFDVTSPNSFDNIFNRWYPEVNHFCKKVPIIVVGCKTDLRKDKSLVNKLRRNGLEPVTYHRGQEMARSVGAVAYLECSARLHDNVHAVFQEAAEVALSSRGRNFWRRITQGFCVVT [T31K], the “effect of a mutation on the interaction” value was “disrupting interaction”.
